In assay [1] the target is T1, FPhtΔ3, FP head-tail monomer without TSR3 (Homo sapiens, UniProt P27918).
T1 construct: properdin (FP), human, TB-TSR2 (FPhΔ3), made from FPh by a stop codon between TSR2 and TSR3; properdin (FP), human, TSR4-6 tail fragment (FPt); The methods name FPhtΔ3 for the crystals with C3bBbSCIN and hFPNb1, the results FPcΔ3; also called FPcΔ3 (so called in the results for the nanobody complex); FPΔ3
The assay can be described thus: crystal structure; C3bBbSCIN-FPhtΔ3-hFPNb1 complex, 6.2 Å; 100 mM NaCl, 5% PEG4000, 10 mM MgCl2, 100 mM sodium cacodylate pH 5.8. Conditions: both partners purified.

Assay [2] concerns the target T2, WT FP, recombinant oligomeric properdin (human, UniProt P27918).
T2 construct: properdin (FP), human, wild type; Secreted oligomers; preparations of ~50% dimer and 50% trimer, and of ~90% dimer and 10% trimer, were used; also called oligomeric FP; dimeric FP; source: also in cell supernatant
The assay can be described thus: pull-down; 50 μg hFPNb1 added to HEK293F supernatants of WT FP or E244 mutants, captured on Ni-NTA beads, washed with 500 mM NaCl, eluted with 400 mM imidazole. The following applies: one partner purified.

The target in the next assay is T3, Biotinylated C3b (human, UniProt P01024 23-667; P01024 749-1663, biotin (Maleimide-PEG2-Biotin)).
T3 construct: complement C3, human, beta chain; complement C3, human, alpha' chain of C3b; also called biotin-C3b; immobilized C3b; source: made from plasma C3 by trypsin cleavage in the presence of Maleimide-PEG2-Biotin, purified by cation exchange
T3 sequence (P01024 23-667, chain 1 of 2): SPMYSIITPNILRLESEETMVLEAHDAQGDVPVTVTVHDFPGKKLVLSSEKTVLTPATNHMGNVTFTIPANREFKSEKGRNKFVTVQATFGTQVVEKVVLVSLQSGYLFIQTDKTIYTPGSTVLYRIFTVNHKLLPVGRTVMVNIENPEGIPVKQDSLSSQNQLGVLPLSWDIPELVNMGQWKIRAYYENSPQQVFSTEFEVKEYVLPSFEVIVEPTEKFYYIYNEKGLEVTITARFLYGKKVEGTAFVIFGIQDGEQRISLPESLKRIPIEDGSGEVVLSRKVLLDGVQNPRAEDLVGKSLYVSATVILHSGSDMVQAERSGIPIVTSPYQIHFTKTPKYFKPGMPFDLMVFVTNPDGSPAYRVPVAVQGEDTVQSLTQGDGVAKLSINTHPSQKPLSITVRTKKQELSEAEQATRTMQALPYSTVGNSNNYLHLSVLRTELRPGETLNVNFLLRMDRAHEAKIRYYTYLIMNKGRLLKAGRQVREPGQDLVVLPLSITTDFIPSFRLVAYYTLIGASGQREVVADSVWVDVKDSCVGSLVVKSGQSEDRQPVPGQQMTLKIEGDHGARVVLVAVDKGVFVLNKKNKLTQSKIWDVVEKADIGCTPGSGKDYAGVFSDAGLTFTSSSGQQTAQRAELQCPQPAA
T3 sequence (P01024 749-1663, chain 2 of 2): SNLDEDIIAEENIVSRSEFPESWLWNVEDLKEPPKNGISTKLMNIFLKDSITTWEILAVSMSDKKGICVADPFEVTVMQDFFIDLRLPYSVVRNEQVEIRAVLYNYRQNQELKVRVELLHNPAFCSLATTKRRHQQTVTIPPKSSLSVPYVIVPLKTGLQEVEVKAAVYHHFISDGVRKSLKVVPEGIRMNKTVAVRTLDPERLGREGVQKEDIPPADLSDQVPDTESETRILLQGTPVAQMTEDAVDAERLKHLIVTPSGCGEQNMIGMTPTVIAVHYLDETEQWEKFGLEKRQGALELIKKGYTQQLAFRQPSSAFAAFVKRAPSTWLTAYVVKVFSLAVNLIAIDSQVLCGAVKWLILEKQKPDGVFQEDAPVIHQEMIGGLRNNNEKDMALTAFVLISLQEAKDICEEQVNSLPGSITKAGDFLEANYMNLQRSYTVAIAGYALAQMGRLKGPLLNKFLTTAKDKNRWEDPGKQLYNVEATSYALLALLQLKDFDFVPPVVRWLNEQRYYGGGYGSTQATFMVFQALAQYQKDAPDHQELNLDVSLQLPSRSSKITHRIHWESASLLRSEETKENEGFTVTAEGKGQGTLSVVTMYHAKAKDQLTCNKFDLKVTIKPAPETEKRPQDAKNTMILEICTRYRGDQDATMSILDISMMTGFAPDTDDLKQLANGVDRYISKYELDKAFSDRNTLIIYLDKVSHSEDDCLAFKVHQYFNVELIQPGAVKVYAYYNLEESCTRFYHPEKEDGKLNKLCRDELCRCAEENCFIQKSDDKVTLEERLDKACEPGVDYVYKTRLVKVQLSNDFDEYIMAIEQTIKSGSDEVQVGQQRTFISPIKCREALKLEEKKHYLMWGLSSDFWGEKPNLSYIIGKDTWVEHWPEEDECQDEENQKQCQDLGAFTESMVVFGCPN
The assay can be described thus: BLI; biotinylated C3b on streptavidin sensors; FB variants at 40 μg/mL; 20 mM MES pH 6.0, 100 mM NaCl, 0.05% Tween, 1 mg/mL BSA, 5 mM MgCl2. Conditions: both partners purified. A general note: Biolayer interferometry detects binding as a change in optical thickness at a sensor tip.

T2 sequence (P27918 28-469): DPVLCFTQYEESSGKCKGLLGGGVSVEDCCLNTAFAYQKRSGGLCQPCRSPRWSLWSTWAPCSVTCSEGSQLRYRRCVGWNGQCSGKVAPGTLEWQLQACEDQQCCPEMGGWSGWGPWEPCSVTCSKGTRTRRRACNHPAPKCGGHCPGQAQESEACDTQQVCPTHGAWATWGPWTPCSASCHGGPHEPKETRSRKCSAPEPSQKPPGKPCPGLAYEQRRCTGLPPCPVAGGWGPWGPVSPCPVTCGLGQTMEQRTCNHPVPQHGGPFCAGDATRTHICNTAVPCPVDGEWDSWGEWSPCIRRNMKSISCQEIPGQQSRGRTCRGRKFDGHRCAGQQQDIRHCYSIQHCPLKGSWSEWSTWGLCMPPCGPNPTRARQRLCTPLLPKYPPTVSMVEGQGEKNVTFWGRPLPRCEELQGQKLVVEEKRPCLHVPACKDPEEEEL
T1 sequence (P27918 whole entry, looked up, stated change not applied, the tested form may be a part): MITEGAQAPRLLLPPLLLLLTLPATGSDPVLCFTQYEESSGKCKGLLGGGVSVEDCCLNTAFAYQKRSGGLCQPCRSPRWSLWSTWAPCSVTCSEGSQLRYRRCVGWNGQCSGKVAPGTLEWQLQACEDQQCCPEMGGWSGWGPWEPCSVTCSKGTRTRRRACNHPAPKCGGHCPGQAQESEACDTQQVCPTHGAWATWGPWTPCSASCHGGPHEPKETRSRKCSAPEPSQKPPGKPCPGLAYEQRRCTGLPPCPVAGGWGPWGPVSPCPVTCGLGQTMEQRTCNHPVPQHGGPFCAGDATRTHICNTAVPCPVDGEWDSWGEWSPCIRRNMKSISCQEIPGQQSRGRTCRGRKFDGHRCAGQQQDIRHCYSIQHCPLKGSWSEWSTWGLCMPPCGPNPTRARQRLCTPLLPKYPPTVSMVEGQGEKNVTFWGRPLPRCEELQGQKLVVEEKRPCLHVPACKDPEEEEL

B1: hFPNb1, FP specific non-inhibitory nanobody (VHH)
VHH: QVQLVESGGGLVQAGGSLRLSCAASERTFTIYAMGWFRQAPGKEREFVAAISRSGENTDYADSVKGRFTISRDNNKNTISLQMNSLKPEDTAVYYCAAGRAILVHTTKKEYDHWGQGTQVTVSS
notes: llama nanobody selected by phage display against FPc
Regarding B1, the binding result in assay [1] and in assay [2] was “binds” throughout.

B2: Recombinant FB D279G, S699A, K348A, L349A, K350A (enzyme, human, UniProt P00751 26-764, looked up)
chain: TPWSLARPQGSCSLEGVEIKGGSFRLLQEGQALEYVCPSGFYPYPVQTRTCRSTGSWSTLKTQDQKTVRKAECRAIHCPRPHDFENGEYWPRSPYYNVSDEISFHCYDGYTLRGSANRTCQVNGRWSGQTAICDNGAGYCSNPGIPIGTRKVGSQYRLEDSVTYHCSRGLTLRGSQRRTCQEGGSWSGTEPSCQDSFMYDTPQEVAEAFLSSLTETIEGVDAEDGHGPGEQQKRKIVLDPSGSMNIYLVLDGSGSIGASNFTGAKKCLVNLIEKVASYGVKPRYGLVTYATYPKIWVKVSEADSSNADWVTKQLNEINYEDHAAASGTNTKKALQAVYSMMSWPDDVPPEGWNRTRHVIILMTDGLHNMGGDPITVIDEIRDLLYIGKDRKNPREDYLDVYVFGVGPLVNQVNINALASKKDNEQHVFKVKDMENLEDVFYQMIDESQSLSLCGMVWEHRKGTDYHKQPWQAKISVIRPSKGHESCMGAVVSEYFVLTAAHCFTVDDKEHSIKVSVGGEKRDLEIEVVLFHPNYNINGKKEAGIPEFYDYDVALIKLKNKLKYGQTIRPICLPCTEGTTRALRLPPTTTCQQQKEELLPAQDIKALFVSEEEKKLTRKEVYIKNGDKKGSCERDAQYAPGYDKVKDISEVVTPRFLCTGGVSPYADPNTCRGDAGGPLIVHKRSRFIQVGVISWGVVDVCKNQKRQKQVPAHARDFHINLFQVLPWLKEKLQDEDLGFL
notes: complement factor B (FB), human; also called FB AAA; 348-AAA-350
Regarding B2, the binding result in the assay with Biotinylated C3b is on record as “binds”.

For the origin of these results see paper PMC6713926, “Structural Basis for Properdin Oligomerization and Convertase Stimulation in the Human Complement System” (Frontiers in Immunology, 2019).
